Target: T1, GST-E2 fusion protein (HPV18 E2) (HPV18, UniProt P06790 1-365)
T1 sequence: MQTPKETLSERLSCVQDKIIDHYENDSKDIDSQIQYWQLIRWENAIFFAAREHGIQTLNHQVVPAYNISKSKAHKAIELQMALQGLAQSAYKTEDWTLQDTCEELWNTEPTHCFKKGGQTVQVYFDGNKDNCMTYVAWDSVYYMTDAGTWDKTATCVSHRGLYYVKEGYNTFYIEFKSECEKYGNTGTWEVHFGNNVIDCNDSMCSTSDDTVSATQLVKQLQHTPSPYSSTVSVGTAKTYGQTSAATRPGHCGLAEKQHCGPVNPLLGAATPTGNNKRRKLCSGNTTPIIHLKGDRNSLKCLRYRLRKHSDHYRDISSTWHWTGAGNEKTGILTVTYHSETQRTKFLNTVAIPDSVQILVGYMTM
Test: GST pull-down of 35S in vitro translated protein, autoradiography

B1: caspase 8 catalytic domain (C8 CD) (other)
chain: EFSKERSSSLEGSPDEFSNGEELCGVMTISDSPREQDSESQTLDKVYQMKSKPRGYCLIINNHNFAKAREKVPKLHSIRDRNGTHLDAGALTTTFEELHFEIKPHDDCTVEQIYEILKIYQLMDHSNMDCFICCILSHGDKGIIYGTDGQEAPIYELTSQFTGLKCPSLAGKPKVFFIQACQGDNYQKGIPVETDSEEQPYLEMDLSSPQTRYIPDEADFLLGMATVNNCVSYRNPAEGTWYIQSLCQSLRERCPRGDDILTILTEVNYEVSNKDDKKNMGKQMPQPTFTLRKKLVFPSD
notes: range 180-480; also called caspase catalytic domain
Does B1 bind?
Result: no binding
